The target in this assay is T1, human ACE2 protein (human, UniProt Q9BYF1 18-740).
T1 construct: No catalogue number is printed; also called angiotensin-converting enzyme-2
The assay is described as follows: adsorption isotherm on protein-coupled resin (depletion, micro-BCA). The following applies: both partners purified.

T1 sequence (Q9BYF1 18-740): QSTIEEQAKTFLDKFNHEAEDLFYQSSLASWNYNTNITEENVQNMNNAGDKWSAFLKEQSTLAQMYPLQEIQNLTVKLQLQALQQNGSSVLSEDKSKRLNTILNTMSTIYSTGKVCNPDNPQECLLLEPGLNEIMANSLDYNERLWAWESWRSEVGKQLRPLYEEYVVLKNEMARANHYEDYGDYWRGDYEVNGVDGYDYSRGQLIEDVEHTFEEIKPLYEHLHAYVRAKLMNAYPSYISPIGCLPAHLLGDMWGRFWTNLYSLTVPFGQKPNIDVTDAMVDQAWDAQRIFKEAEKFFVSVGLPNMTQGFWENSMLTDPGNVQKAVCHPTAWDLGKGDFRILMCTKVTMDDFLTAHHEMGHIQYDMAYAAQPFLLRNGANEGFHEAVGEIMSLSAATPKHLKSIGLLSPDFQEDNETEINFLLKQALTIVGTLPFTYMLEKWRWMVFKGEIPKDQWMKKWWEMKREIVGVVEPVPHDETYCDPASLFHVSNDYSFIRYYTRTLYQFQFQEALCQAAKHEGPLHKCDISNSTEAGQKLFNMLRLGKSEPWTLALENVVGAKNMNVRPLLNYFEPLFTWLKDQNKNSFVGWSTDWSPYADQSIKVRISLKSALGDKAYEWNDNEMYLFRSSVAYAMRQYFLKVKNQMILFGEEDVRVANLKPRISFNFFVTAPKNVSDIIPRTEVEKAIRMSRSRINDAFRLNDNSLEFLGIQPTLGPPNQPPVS

For KYPAY [functional peptide KYPAY (K5)], the affinity, expressed as Kd, was 12.5 µM.

These data come from article PMC11242946 (Molecules, 2024).
